Values of other authors as cited in publication PMC3061301.

Molecular target: PTP-BL (Mus musculus) (UniProt Q64512)
Assay: surface plasmon resonance

Sequence of UniProt Q64512 (Q64512 whole entry): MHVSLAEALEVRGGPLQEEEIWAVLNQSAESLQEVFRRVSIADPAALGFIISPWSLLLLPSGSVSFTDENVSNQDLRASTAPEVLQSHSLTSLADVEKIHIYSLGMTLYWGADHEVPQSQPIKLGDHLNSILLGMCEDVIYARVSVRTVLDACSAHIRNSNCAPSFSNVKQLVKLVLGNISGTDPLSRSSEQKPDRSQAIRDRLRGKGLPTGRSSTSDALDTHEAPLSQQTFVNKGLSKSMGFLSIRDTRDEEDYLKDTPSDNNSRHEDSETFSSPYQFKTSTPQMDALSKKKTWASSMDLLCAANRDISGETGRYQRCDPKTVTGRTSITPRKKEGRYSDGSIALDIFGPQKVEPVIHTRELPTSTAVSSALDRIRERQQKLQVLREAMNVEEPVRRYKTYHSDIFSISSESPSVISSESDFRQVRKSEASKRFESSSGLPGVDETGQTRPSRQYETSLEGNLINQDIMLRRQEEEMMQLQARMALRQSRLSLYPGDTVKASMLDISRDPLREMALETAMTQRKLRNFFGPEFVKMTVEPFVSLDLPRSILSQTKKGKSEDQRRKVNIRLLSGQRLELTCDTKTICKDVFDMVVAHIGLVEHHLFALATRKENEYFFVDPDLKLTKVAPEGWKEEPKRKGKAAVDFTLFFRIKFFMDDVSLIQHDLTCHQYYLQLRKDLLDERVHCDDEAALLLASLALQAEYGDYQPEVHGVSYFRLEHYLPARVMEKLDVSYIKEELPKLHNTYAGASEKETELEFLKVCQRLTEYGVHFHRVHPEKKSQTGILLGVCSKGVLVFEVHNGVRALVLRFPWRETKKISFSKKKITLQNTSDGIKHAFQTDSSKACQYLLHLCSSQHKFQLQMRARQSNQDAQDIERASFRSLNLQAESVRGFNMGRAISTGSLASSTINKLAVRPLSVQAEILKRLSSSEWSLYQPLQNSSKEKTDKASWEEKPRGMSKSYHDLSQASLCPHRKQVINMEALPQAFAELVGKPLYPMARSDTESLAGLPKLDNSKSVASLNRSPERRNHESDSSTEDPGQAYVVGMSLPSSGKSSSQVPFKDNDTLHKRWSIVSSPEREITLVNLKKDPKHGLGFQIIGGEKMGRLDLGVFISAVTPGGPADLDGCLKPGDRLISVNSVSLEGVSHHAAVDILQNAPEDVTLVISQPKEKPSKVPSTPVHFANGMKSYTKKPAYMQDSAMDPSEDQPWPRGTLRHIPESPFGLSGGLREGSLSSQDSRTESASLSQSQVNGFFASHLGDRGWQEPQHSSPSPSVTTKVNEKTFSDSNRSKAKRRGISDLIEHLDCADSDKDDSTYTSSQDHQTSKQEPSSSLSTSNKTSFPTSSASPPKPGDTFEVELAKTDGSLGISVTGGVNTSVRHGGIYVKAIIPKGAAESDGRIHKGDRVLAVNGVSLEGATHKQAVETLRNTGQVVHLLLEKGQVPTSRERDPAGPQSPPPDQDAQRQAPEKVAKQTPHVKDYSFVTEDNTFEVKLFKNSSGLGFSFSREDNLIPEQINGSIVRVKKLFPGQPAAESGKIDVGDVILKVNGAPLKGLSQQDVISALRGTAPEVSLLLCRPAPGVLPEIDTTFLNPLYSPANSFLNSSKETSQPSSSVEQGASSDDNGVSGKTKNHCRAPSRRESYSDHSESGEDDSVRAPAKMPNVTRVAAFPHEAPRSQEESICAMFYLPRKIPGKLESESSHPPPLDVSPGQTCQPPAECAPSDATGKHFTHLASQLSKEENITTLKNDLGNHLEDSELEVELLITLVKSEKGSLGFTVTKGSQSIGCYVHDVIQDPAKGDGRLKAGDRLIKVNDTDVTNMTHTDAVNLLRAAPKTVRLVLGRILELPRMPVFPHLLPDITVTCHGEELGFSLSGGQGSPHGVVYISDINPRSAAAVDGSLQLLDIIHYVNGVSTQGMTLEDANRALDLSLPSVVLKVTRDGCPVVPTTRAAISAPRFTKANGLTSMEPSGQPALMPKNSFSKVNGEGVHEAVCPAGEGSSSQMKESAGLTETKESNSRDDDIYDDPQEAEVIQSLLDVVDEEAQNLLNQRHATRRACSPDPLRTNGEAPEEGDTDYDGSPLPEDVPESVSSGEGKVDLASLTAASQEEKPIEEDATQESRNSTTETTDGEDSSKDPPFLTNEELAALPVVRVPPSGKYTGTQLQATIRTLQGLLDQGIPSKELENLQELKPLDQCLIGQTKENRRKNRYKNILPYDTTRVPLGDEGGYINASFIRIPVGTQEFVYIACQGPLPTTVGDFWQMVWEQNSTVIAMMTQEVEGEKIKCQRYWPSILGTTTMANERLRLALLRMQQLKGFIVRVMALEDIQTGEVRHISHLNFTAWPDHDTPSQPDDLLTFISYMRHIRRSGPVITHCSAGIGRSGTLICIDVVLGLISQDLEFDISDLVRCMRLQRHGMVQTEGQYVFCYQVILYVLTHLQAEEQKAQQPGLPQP

In the case of “APC C-terminal 19 amino acids (from UniProt P25054)”, the Kd is given as 8 nM.
